Data taken from article PMC3616739.
Where “and” joins values, the source holds several entries; their conditions need not be identical. Equal entries are not always repeated.

Target: GST-LEDGF PWWP (1–100) (UniProt O75475)
Assay: pull-down

Sequence of GST-LEDGF PWWP (1–100) (O75475 1-100): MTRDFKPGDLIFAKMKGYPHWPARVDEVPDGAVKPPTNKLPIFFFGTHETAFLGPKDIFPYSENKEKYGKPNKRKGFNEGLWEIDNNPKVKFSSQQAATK

For “native mononucleosomes (MNs) from SupT1 cells (from UniProt P0C0S8;P62807;P68431;P62805) (complex)”, the Kd was 232 nM and 102 nM.
